Reference: patent US5648214, “High-affinity oligonucleotide ligands to the tachykinin substance P” (University Research Corporation)

Assays:
Substance P (SP) [1] = molecular target: T1, Substance P (SP) (UniProt P20366); settings: equilibrium dialysis rough estimate at 20 uM RNA, fraction bound 0.017
T1 sequence: RPKPQQFFGLM

Substance P (SP) [2] = molecular target: T2, Substance P (SP) (UniProt P20366); test: high affinity class 3 ligand; single-point equilibrium dialysis, Kd value only in figure; settings: protein: synthetic; tags: synthetic peptide, C-terminal amide; Sigma; 3H-SP from NEN
T2 chain: RPKPQQFFGLM
Description: Equilibrium dialysis experiments were performed with a Spectra/Por® (Spectrum; Houston, Tex.) equilibrium dialyzer, Spectra/Por® (Spectrum; Houston, Tex.) microcell dialysis chambers (200-µl chamber volumes), and 12000–14000 MWCO dialysis membranes (Spectrum; Houston, Tex.). These membranes allow passage of SP but not 107-nt RNAs. Sample volumes were 200 µl on each side of the membrane (i.e., 200 µl per chamber). All experiments were at room temperature in 1× SP binding buffer. RNAs (unlabeled) were denatured prior to re-equilibration in binding buffer as described above for Experiment B. For binding curves (FIG. 4), RNA concentrations between 50 nM and 20 µM were utilized. Single point K_d estimates for individual Experiment B ligands were performed with 200 nM or 1 µM RNA. […] Equilibrium dialysis initiated with ^3H-SP on one side of the membrane and in the absence of RNA was performed to determine the length of time required to attain equilibrium (~2.5 hours for Spectra/Por®-2 membranes); dialysis times for binding measurements were at least one hour longer than this determined time. Following equilibration, samples were withdrawn from the dialysis chambers, added to scintillation fluid, and counted.

Question: Which Kd (Substance P (SP) [1]) does the source give for “GGGAGCUCAGAAUAAACGCUCAANNNNNNNNNNNNNNNNNNNNNNNNNNNNNNNNNNNNNNNNNNNNNNNNNNNNNNNNNNNNUUCGACAUGAGGCCCGGAUCCGGC [unselected 60N RNA pool]” here?
Answer: The Kd was 1200 µM.

B1: ligand B32 (ssRNA)
RNA: GGGAGCUCAGAAUAAACGCUCAAAAAGGCACUGACCACCCUCAGGAAGAAUAACCGCGGUCACCCGCAUCCGAGUCUAUCAAUUUCGACAUGAGGCCCGGAUCCGGC
Question: Does B1 bind (Substance P (SP) [2])?
Answer: Result: binds
